# Reference: the Human Domainome abundance scans (Beltran et al. 2025)
# ± gives the uncertainty stated by the source.
# B1: Far upstream element-binding protein 1, residues 98 to 169; numbered along this chain, Q96AE4 (parent)
# chain: RSVMTEEYKVPDGMVGFIIGRGGEQISRIQQESGCKIQIAPDSGGLPERSCMLTGTPESVQSAKRLLDQIVE
# Variants of: B1
# Assay: abundance fitness (aPCA) (normalised: wild type 0, dead -1); higher = more abundant; growth selection in yeast, the domain comes from the species named
# Conditions: Homo sapiens
row,Variant,abundance fitness
1,M4S,-0.135 ± 0.028
2,M4C,0.01 ± 0.032
3,M4F,-0.001 ± 0.035
4,M4T,-0.06 ± 0.031
5,M4H,-0.074 ± 0.045
6,M4W,-0.165 ± 0.03
7,M4G,-0.133 ± 0.023
8,M4K,-0.053 ± 0.034
9,M4R,-0.165 ± 0.023
10,M4Y,-0.007 ± 0.041
11,M4D,-0.079 ± 0.036
12,M4P,-0.245 ± 0.032
13,M4L,-0.033 ± 0.025
14,M4A,-0.07 ± 0.027
15,M4N,-0.027 ± 0.037
16,M4Q,-0.085 ± 0.03
17,M4I,0.015 ± 0.035
18,E7M,-0.281 ± 0.25
19,E7V,-0.106 ± 0.14
20,E7G,-0.116 ± 0.14
21,E7W,-0.054 ± 0.17
22,E7F,-0.153 ± 0.23
23,E7A,-0.085 ± 0.3
24,E7T,-0.031 ± 0.21

row,Variant,abundance fitness
1,E7C,0.061 ± 0.11
2,E7L,-0.031 ± 0.32
3,I19T,-0.018 ± 0.03
4,I19Q,-0.03 ± 0.032
5,I19L,-0.006 ± 0.027
6,I19E,0.018 ± 0.032
7,I19F,-0.048 ± 0.054
8,I19H,-0.06 ± 0.038
9,I19D,-0.094 ± 0.038
10,I19P,-0.211 ± 0.029
11,I19G,-0.072 ± 0.025
12,I19Y,-0.068 ± 0.051
13,I19A,-0.034 ± 0.027
14,I19M,-0.071 ± 0.036
15,I19R,-0.038 ± 0.023
16,I19W,-0.042 ± 0.031
17,I19V,0.012 ± 0.027
18,I19S,-0.046 ± 0.027
19,I19K,-0.021 ± 0.037
20,I19N,-0.036 ± 0.045
21,I19C,-0.001 ± 0.042
22,F17E,0.084 ± 0.027
23,F17D,0.015 ± 0.033
24,F17L,-0.008 ± 0.024

row,Variant,abundance fitness
1,F17Y,-0.019 ± 0.038
2,F17P,0.01 ± 0.028
3,F17K,0.072 ± 0.03
4,F17Q,0.044 ± 0.029
5,F17S,0.063 ± 0.024
6,F17N,0.022 ± 0.038
7,F17W,-0.007 ± 0.026
8,F17H,-0.003 ± 0.035
9,F17A,0.045 ± 0.025
10,F17G,0.04 ± 0.022
11,F17R,0.047 ± 0.021
12,F17C,-0.009 ± 0.032
13,F17V,-0.005 ± 0.024
14,F17M,0.018 ± 0.032
15,F17T,0 ± 0.027
16,F17I,-0.041 ± 0.04
17,R1K,-0.081 ± 0.035
18,R1I,0.01 ± 0.034
19,R1A,-0.125 ± 0.043
20,R1H,-0.219 ± 0.065
21,R1S,-0.113 ± 0.028
22,R1G,-0.102 ± 0.031
23,R1V,-0.035 ± 0.036
24,R1Q,-0.513 ± 0.14

row,Variant,abundance fitness
1,R1N,0.043 ± 0.034
2,R1W,-0.269 ± 0.035
3,R1L,-0.131 ± 0.038
4,R1C,-0.013 ± 0.033
5,R1P,-0.286 ± 0.062
6,R1E,-0.194 ± 0.054
7,R1D,0.042 ± 0.048
8,R1Y,0.011 ± 0.046
9,G16L,-0.102 ± 0.029
10,G16T,-0.054 ± 0.033
11,G16M,-0.098 ± 0.036
12,G16Q,-0.029 ± 0.033
13,G16K,-0.028 ± 0.038
14,G16W,-0.09 ± 0.03
15,G16N,-0.037 ± 0.043
16,G16H,-0.064 ± 0.048
17,G16F,-0.176 ± 0.059
18,G16C,-0.083 ± 0.044
19,G16I,-0.144 ± 0.06
20,G16R,-0.007 ± 0.023
21,G16D,0.018 ± 0.039
22,G16A,-0.023 ± 0.029
23,G16E,0.009 ± 0.03
24,G16V,-0.108 ± 0.027

row,Variant,abundance fitness
1,G16P,0.033 ± 0.034
2,G16Y,-0.118 ± 0.058
3,T5D,-0.149 ± 0.04
4,T5S,-0.01 ± 0.026
5,T5R,-0.012 ± 0.023
6,T5H,-0.055 ± 0.037
7,T5C,-0.072 ± 0.036
8,T5F,-0.006 ± 0.046
9,T5P,-0.301 ± 0.032
10,T5A,0 ± 0.028
11,T5W,-0.138 ± 0.029
12,T5N,-0.063 ± 0.041
13,T5E,0.009 ± 0.03
14,T5I,-0.037 ± 0.038
15,T5M,-0.012 ± 0.034
16,T5L,-0.11 ± 0.026
17,T5V,-0.049 ± 0.025
18,T5Y,-0.096 ± 0.046
19,T5G,-0.101 ± 0.024
20,T5Q,-0.016 ± 0.033
21,S2V,-0.036 ± 0.029
22,S2I,-0.077 ± 0.048
23,S2R,-0.004 ± 0.025
24,S2C,-0.085 ± 0.037

row,Variant,abundance fitness
1,S2F,-0.026 ± 0.039
2,S2A,-0.033 ± 0.027
3,S2Q,0.015 ± 0.035
4,S2L,-0.052 ± 0.027
5,S2K,-0.006 ± 0.039
6,S2M,0.038 ± 0.037
7,S2Y,-0.087 ± 0.049
8,S2G,-0.003 ± 0.026
9,S2H,-0.15 ± 0.048
10,S2E,-0.007 ± 0.037
11,S2T,0.012 ± 0.03
12,S2W,-0.133 ± 0.035
13,S2P,-0.064 ± 0.031
14,S2N,-0.143 ± 0.057
15,M14I,-0.037 ± 0.043
16,M14C,-0.011 ± 0.037
17,M14F,-0.016 ± 0.044
18,M14K,-0.066 ± 0.033
19,M14V,-0.01 ± 0.027
20,M14W,-0.093 ± 0.03
21,M14S,-0.026 ± 0.026
22,M14L,-0.013 ± 0.025
23,M14R,-0.131 ± 0.023
24,M14H,-0.12 ± 0.044

row,Variant,abundance fitness
1,M14G,-0.097 ± 0.025
2,M14A,-0.007 ± 0.028
3,M14D,-0.082 ± 0.037
4,M14N,-0.105 ± 0.042
5,M14P,-0.27 ± 0.031
6,M14Y,-0.025 ± 0.05
7,P11M,-0.136 ± 0.032
8,P11T,-0.124 ± 0.028
9,P11N,-0.125 ± 0.041
10,P11L,-0.102 ± 0.025
11,P11E,-0.067 ± 0.031
12,P11V,-0.17 ± 0.026
13,P11S,-0.112 ± 0.025
14,P11D,-0.052 ± 0.034
15,P11W,-0.185 ± 0.03
16,P11H,-0.162 ± 0.041
17,P11A,-0.081 ± 0.025
18,P11C,-0.133 ± 0.033
19,P11Q,-0.099 ± 0.032
20,P11I,-0.159 ± 0.038
21,P11Y,-0.127 ± 0.042
22,P11G,-0.138 ± 0.025
23,P11F,-0.206 ± 0.046
